Columns and labels:
[1] = molecular target: T1, human insulin receptor protein (human, UniProt P06213-2 28-944, limits assumed); test: ELISA, coated antigen 5 µg/mL
T1 construct: also called human insulin receptor proteins
Method: (§1) Recombinant human, monkey and mouse IGF-1R-his antigens and human insulin receptor proteins (5 μg/mL) were added to a 96-well plate for coating overnight at 4° C. The plate was washed with PBS, and then was blocked with 1% casein at room temperature for 1 h. The nanobody-Fc fusion proteins were diluted to 2 μg/mL with 0.1% BSA/PBS, added to the antigen-coated 96-well plate, and incubated at room temperature for 1 hour. The plate was washed three times with 0.1% PBST, horseradish peroxidase-labeled anti-human Fc tag antibodies (anti-human IgG-HRP, Abcam ab6759, 1:5,000, containing 1% casein) were added and incubated at room temperature for 30 min, and the plate was washed three times with 0.1% PBST. A TMB substrate solution (Thermo, 34028) was added for color development, and the OD₄₅₀ was read using a microplate reader.

[2] = molecular target: T2, recombinant mouse IGF-1R-his (mouse, UniProt Q60751 31-933); test: ELISA, coated antigen 5 µg/mL
T2 construct: not shown: his tag
T2 sequence (Q60751 31-933 limits assumed): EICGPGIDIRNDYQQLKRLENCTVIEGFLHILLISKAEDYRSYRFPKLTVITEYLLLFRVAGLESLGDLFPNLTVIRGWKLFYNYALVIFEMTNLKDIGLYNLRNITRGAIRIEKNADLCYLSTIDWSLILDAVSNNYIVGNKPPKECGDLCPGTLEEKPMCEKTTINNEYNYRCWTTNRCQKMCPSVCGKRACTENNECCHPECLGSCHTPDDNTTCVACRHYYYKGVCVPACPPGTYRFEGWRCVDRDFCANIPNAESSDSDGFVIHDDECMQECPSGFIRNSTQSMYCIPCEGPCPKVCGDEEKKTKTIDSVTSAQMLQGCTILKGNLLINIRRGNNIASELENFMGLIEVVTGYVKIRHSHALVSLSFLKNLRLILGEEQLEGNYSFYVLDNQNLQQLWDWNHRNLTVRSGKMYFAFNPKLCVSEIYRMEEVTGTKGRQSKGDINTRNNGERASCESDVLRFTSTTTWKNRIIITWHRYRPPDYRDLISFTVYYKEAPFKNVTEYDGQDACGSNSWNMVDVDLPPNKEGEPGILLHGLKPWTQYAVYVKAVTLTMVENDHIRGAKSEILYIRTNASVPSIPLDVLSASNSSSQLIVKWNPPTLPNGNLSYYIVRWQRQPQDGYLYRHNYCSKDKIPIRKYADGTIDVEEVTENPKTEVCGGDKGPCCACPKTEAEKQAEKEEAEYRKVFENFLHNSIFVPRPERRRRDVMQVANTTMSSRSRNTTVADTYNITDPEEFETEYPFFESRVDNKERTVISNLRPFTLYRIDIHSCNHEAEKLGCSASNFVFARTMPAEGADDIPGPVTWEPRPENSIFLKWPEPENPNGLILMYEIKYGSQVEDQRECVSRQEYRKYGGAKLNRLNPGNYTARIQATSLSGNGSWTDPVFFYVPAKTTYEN
Method: as §1

[3] = molecular target: T3, recombinant human IGF-1R-his (human, UniProt P08069 31-932); test: competition ELISA, coated hIGF-1R-his, competitor biotinylated IGF-1
T3 construct: Recombinant his-tagged protein; also called hIGF-1R-his; hIGF1R-his; not shown: his tag
T3 sequence (P08069 31-932 limits assumed): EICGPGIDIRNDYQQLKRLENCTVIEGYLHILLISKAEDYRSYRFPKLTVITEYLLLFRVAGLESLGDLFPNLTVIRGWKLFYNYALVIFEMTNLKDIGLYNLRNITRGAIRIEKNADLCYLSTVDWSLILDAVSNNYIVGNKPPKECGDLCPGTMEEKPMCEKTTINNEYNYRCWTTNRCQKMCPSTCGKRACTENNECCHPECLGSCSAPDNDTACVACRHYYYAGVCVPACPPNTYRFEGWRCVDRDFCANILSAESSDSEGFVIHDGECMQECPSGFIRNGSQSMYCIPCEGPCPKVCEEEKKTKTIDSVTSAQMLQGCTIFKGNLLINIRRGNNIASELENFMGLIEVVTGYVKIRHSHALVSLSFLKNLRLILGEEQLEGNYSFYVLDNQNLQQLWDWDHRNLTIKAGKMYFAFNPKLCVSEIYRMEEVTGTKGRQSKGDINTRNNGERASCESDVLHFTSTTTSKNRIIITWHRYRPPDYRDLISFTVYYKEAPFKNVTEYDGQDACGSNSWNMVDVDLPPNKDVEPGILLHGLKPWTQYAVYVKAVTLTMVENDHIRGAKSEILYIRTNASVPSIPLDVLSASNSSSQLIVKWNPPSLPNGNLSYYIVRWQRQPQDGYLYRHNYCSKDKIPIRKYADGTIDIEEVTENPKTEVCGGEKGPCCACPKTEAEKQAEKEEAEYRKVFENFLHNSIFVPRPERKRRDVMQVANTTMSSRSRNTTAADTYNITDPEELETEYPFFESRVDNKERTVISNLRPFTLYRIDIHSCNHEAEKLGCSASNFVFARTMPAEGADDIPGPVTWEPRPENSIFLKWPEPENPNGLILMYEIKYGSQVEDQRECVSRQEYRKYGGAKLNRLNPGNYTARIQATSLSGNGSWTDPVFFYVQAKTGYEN
Method: Recombinant human IGF1R-his antigen (5 μg/mL) was added to a 96-well plate for coating overnight at 4° C. The plate was washed 4 times with 1×TBST, and then was blocked with 2% BSA at room temperature for 1.5 h. The plate was washed four times with 1×TBST, and 50 μL of nanobody-Fc fusion proteins of different concentrations (with a starting concentration of 10 μg/mL, 2-fold serially diluted) and 50 μL of biotinylated IGF-1 ([…]) were added to the antigen-coated 96-well plate and incubated at 37° C. for 1 h. The plate was washed 4 times with 1×TBST, horseradish peroxidase-labeled Streptavidin (Thermo, 21126) was added and incubated at 37° C. for 1 h, and the plate was washed 4 times with 1×TBST. TMB substrate solution was added at 200 μL per well for color development in the dark for 20 min, 50 μL of 1 M H₂SO₄ was added to terminate the reaction, and the OD₄₅₀ was read using a microplate reader. A curve was fit and the IC₅₀ value was calculated using Graphpad Prism software.

T1 sequence (P06213 other isoform, or with tags, fused parts or gaps limits assumed): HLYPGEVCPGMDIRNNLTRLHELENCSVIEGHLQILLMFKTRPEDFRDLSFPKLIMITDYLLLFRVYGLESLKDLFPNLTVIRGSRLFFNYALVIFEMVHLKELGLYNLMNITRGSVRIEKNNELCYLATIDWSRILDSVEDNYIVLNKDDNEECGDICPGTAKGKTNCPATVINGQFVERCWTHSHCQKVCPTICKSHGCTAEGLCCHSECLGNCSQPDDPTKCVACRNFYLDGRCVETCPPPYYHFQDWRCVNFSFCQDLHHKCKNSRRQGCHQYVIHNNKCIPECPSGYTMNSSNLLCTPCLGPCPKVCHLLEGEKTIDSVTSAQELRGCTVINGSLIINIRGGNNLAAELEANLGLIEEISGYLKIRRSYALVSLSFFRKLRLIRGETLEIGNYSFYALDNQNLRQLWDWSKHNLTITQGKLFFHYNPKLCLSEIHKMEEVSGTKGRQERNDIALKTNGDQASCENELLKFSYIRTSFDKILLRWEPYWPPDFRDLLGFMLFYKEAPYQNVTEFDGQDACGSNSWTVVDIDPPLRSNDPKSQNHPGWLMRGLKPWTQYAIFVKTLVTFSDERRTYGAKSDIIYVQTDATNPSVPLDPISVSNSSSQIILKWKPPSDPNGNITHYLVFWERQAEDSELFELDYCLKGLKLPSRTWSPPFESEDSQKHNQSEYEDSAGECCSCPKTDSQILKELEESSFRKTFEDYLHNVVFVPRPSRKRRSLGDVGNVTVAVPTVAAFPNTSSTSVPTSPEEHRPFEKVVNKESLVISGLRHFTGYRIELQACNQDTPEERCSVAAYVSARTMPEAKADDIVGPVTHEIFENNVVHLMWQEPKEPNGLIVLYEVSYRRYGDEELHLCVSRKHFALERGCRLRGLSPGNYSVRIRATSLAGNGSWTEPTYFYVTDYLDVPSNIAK

binding result [1]: no binding (tested: 2 µg/mL)
binding result [2]: no binding (tested: 2 µg/mL)
IC50 [3]: 0.435 µg/mL
B1: 5115-Fc fusion protein (Fc fusion)
VHH: EVQLVESGGGLVQAGGSLRLSCAVSGRTFSSFVMGWFRQAPGKEREFVAAISGSGSRANYADSVKGRFTVSRDNANNTVYLQMNSLKPDDTALYYCAANPRRATPDYTQYAYWGQGTQVTVSS
notes: C-terminus of the VHH linked to the N-terminus of human Fc; not shown: The human Fc segment; Any hinge or linker is also unstated
